Test results: US20150344570A1 (published 2015)

T1: FcγRIIb extracellular domain with C-terminal His tag (human, UniProt P31994 43-217)
T1 construct: extracellular domain; also called FcgRIIb; 2b; not shown: His tag at the C terminus
T1 sequence (looked up): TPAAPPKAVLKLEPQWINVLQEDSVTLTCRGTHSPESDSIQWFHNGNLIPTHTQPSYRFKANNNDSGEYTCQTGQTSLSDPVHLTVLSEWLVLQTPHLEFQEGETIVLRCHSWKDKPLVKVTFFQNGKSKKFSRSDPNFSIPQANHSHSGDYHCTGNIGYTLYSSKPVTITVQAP


Tests used:
[1] = target: T2, FcγRIIIa extracellular domain with C-terminal His tag (human, UniProt P08637 17-208); test: SPR (Biacore), FcγR as analyte over captured antibody; GpH7-A5/GpH7-B3/GpL16-k0 = 100
T2 construct: extracellular domain; also called FcgRIIIa; 3a; not shown: His tag at the C terminus
T2 sequence (P08637 17-208): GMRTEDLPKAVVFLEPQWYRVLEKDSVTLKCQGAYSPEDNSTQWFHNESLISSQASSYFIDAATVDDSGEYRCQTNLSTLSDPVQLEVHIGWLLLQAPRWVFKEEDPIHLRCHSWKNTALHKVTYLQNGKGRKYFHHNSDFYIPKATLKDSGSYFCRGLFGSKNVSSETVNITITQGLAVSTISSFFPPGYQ

[2] = target: T1, FcγRIIb extracellular domain with …; test: as above
[3] = target: T2, FcγRIIIa extracellular domain with …; test: SPR (Biacore); He/Con_3a divided by He/Con_2b (FcγRIIb)
FcγRIa = target: T3, FcγRIa (human, UniProt P12314 16-292); test: SPR (Biacore), relative binding; control HoCon Ab GpH7-B3/GpL16-k0
T3 construct: extracellular domain; also called FcgRI; FcgRIa; not shown: His tag attached to the C terminus
T3 sequence (P12314 16-292): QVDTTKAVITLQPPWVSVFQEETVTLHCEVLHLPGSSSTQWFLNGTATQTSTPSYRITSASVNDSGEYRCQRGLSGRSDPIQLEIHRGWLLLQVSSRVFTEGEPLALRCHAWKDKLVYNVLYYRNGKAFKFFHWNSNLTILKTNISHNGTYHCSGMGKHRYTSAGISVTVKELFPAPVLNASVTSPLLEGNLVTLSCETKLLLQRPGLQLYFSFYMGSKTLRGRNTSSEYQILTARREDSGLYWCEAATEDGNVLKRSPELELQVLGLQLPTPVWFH

Binder | He/Con_3a [1] | He/Con_2b [2] | He_3a/2b (IIIa/IIb) [3] [ratio] | Ho/Con_1a (FcγRIa)
GpH7-A5/GpH7-B3 variant Y296_14T/GpL16-k0 (antibody, human IgG1, kappa, Heterodimerized IgG1 antibody; alteration in the GpH7-B3 chain only; also called He Ab) heavy 1: not shown heavy 2: not shown light: DIVMTQSPLSLPVTPGEPASISCQASESLVHSNRNTYLHWYLQKPGQSPQLLIYKVSNRFSGVPDRFSGSGSGTDFTLKISRVEAEDVGVYYCSQNTHVPPTFGQGTKVEIERTVAAPSVFIFPPSDEQLKSGTASVVCLLNNFYPREAKVQWKVDNALQSGNSQESVTEQDSKDSTYSLSSTLTLSKADYEKHKVYACEVTHQGLSSPVTKSFNRGEC | 64.5 % of control | 88.2 % of control | 0.73 | –
GpH7-A5/GpH7-B3 variant Y296_16H/GpL16-k0 (antibody, human IgG1, kappa, Heterodimerized IgG1 antibody; alteration in the GpH7-B3 chain only; also called He Ab) heavy 1: not shown heavy 2: not shown light: DIVMTQSPLSLPVTPGEPASISCQASESLVHSNRNTYLHWYLQKPGQSPQLLIYKVSNRFSGVPDRFSGSGSGTDFTLKISRVEAEDVGVYYCSQNTHVPPTFGQGTKVEIERTVAAPSVFIFPPSDEQLKSGTASVVCLLNNFYPREAKVQWKVDNALQSGNSQESVTEQDSKDSTYSLSSTLTLSKADYEKHKVYACEVTHQGLSSPVTKSFNRGEC | 73.4 % of control | 92.2 % of control | 0.8 | –
GpH7-A5/GpH7-B3 variant Y296_18N/GpL16-k0 (antibody, human IgG1, kappa, Heterodimerized IgG1 antibody; alteration in the GpH7-B3 chain only; also called He Ab) heavy 1: not shown heavy 2: not shown light: DIVMTQSPLSLPVTPGEPASISCQASESLVHSNRNTYLHWYLQKPGQSPQLLIYKVSNRFSGVPDRFSGSGSGTDFTLKISRVEAEDVGVYYCSQNTHVPPTFGQGTKVEIERTVAAPSVFIFPPSDEQLKSGTASVVCLLNNFYPREAKVQWKVDNALQSGNSQESVTEQDSKDSTYSLSSTLTLSKADYEKHKVYACEVTHQGLSSPVTKSFNRGEC | 72.1 % of control | 91.5 % of control | 0.79 | –
GpH7-A5/GpH7-B3 variant Y300_10E/GpL16-k0 (antibody, human IgG1, kappa, Heterodimerized IgG1 antibody; alteration in the GpH7-B3 chain only; also called He Ab) heavy 1: not shown heavy 2: not shown light: DIVMTQSPLSLPVTPGEPASISCQASESLVHSNRNTYLHWYLQKPGQSPQLLIYKVSNRFSGVPDRFSGSGSGTDFTLKISRVEAEDVGVYYCSQNTHVPPTFGQGTKVEIERTVAAPSVFIFPPSDEQLKSGTASVVCLLNNFYPREAKVQWKVDNALQSGNSQESVTEQDSKDSTYSLSSTLTLSKADYEKHKVYACEVTHQGLSSPVTKSFNRGEC | 104 % of control | 134 % of control | 0.78 | –
GpH7-B3 variant K334_01G/GpL16-k0 (antibody, human IgG1, kappa, Alteration in both H chains; also called Ho Ab K334_01G) heavy: not shown light: DIVMTQSPLSLPVTPGEPASISCQASESLVHSNRNTYLHWYLQKPGQSPQLLIYKVSNRFSGVPDRFSGSGSGTDFTLKISRVEAEDVGVYYCSQNTHVPPTFGQGTKVEIERTVAAPSVFIFPPSDEQLKSGTASVVCLLNNFYPREAKVQWKVDNALQSGNSQESVTEQDSKDSTYSLSSTLTLSKADYEKHKVYACEVTHQGLSSPVTKSFNRGEC | – | – | – | 106 % of control (=100)
GpH7-B3 variant I336_15Y/GpL16-k0 (antibody, human IgG1, kappa, Alteration in both H chains; also called Ho Ab I336_15Y) heavy: not shown light: DIVMTQSPLSLPVTPGEPASISCQASESLVHSNRNTYLHWYLQKPGQSPQLLIYKVSNRFSGVPDRFSGSGSGTDFTLKISRVEAEDVGVYYCSQNTHVPPTFGQGTKVEIERTVAAPSVFIFPPSDEQLKSGTASVVCLLNNFYPREAKVQWKVDNALQSGNSQESVTEQDSKDSTYSLSSTLTLSKADYEKHKVYACEVTHQGLSSPVTKSFNRGEC | – | – | – | 110 % of control (=100)
GpH7-B3 variant I336_16H/GpL16-k0 (antibody, human IgG1, kappa, Alteration in both H chains; also called Ho Ab I336_16H) heavy: not shown light: DIVMTQSPLSLPVTPGEPASISCQASESLVHSNRNTYLHWYLQKPGQSPQLLIYKVSNRFSGVPDRFSGSGSGTDFTLKISRVEAEDVGVYYCSQNTHVPPTFGQGTKVEIERTVAAPSVFIFPPSDEQLKSGTASVVCLLNNFYPREAKVQWKVDNALQSGNSQESVTEQDSKDSTYSLSSTLTLSKADYEKHKVYACEVTHQGLSSPVTKSFNRGEC | – | – | – | 114 % of control (=100)
GpH7-B3 variant K326_03V/GpL16-k0 (antibody, human IgG1, kappa, Alteration in both H chains; also called Ho Ab K326_03V) heavy: not shown light: DIVMTQSPLSLPVTPGEPASISCQASESLVHSNRNTYLHWYLQKPGQSPQLLIYKVSNRFSGVPDRFSGSGSGTDFTLKISRVEAEDVGVYYCSQNTHVPPTFGQGTKVEIERTVAAPSVFIFPPSDEQLKSGTASVVCLLNNFYPREAKVQWKVDNALQSGNSQESVTEQDSKDSTYSLSSTLTLSKADYEKHKVYACEVTHQGLSSPVTKSFNRGEC | – | – | – | 103 % of control (=100)
GpH7-B3 variant K326_04F/GpL16-k0 (antibody, human IgG1, kappa, Alteration in both H chains; also called Ho Ab K326_04F) heavy: not shown light: DIVMTQSPLSLPVTPGEPASISCQASESLVHSNRNTYLHWYLQKPGQSPQLLIYKVSNRFSGVPDRFSGSGSGTDFTLKISRVEAEDVGVYYCSQNTHVPPTFGQGTKVEIERTVAAPSVFIFPPSDEQLKSGTASVVCLLNNFYPREAKVQWKVDNALQSGNSQESVTEQDSKDSTYSLSSTLTLSKADYEKHKVYACEVTHQGLSSPVTKSFNRGEC | – | – | – | 102 % of control (=100)
GpH7-B3 variant K326_06M/GpL16-k0 (antibody, human IgG1, kappa, Alteration in both H chains; also called Ho Ab K326_06M) heavy: not shown light: DIVMTQSPLSLPVTPGEPASISCQASESLVHSNRNTYLHWYLQKPGQSPQLLIYKVSNRFSGVPDRFSGSGSGTDFTLKISRVEAEDVGVYYCSQNTHVPPTFGQGTKVEIERTVAAPSVFIFPPSDEQLKSGTASVVCLLNNFYPREAKVQWKVDNALQSGNSQESVTEQDSKDSTYSLSSTLTLSKADYEKHKVYACEVTHQGLSSPVTKSFNRGEC | – | – | – | 104 % of control (=100)
